From patent US20150315260A1 (Sanofi, published 2015) come the findings set out here.

Non-standard residues stand in square brackets, D forms with d. No end group written: not given here. Aib = CC(C)(N)C(=O)O

What all share (test): cell-based or functional assay
One test concerns the target T1, human GIP receptor (human, UniProt P48546 22-466).
T1 sequence (looked up): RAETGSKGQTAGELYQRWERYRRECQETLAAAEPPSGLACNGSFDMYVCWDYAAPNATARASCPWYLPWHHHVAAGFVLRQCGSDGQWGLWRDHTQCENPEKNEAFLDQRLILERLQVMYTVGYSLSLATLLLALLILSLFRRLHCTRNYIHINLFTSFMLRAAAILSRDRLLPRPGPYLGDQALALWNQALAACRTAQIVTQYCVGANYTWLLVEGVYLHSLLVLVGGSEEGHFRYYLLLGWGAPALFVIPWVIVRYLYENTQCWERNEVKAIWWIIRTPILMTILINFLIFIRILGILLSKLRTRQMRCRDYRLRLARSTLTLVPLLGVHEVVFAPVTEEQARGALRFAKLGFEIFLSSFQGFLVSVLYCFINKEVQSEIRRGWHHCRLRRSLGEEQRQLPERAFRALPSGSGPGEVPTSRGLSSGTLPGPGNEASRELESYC

Another test deals with human GLP-1 receptor (human, UniProt P43220 24-463).
A further test concerns the target human glucagon receptor (human, UniProt P47871 26-477).

Sequence of human glucagon receptor (P47871 26-477): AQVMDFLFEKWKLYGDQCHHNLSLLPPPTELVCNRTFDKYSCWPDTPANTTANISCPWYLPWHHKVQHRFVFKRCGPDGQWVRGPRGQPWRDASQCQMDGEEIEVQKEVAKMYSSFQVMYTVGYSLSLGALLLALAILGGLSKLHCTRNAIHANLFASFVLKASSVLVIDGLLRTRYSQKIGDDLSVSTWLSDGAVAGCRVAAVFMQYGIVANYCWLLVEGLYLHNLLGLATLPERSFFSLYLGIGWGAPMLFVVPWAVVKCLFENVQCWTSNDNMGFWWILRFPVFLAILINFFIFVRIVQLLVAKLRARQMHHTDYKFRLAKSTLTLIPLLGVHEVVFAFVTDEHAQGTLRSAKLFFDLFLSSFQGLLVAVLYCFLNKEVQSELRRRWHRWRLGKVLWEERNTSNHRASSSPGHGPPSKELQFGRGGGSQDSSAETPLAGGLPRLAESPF

B1: exendin-4 derivative SEQ ID NO: 24 (comparison compound, Leu in position 14) (peptide)
peptide: H[Aib]QGTFTSDLSKQLDEQRAKLFIEWL[Aib]AGGPSSGAPPPS-NH2
modifications: N-terminus assumed
SMILES: CC[C@H](C)[C@H](NC(=O)[C@H](Cc1ccccc1)NC(=O)[C@H](CC(C)C)NC(=O)[C@H](CCCCN)NC(=O)[C@H](C)NC(=O)[C@H](CCCNC(=N)N)NC(=O)[C@H](CCC(N)=O)NC(=O)[C@H](CCC(=O)O)NC(=O)[C@H](CC(=O)O)NC(=O)[C@H](CC(C)C)NC(=O)[C@H](CCC(N)=O)NC(=O)[C@H](CCCCN)NC(=O)[C@H](CO)NC(=O)[C@H](CC(C)C)NC(=O)[C@H](CC(=O)O)NC(=O)[C@H](CO)NC(=O)[C@@H](NC(=O)[C@H](Cc1ccccc1)NC(=O)[C@@H](NC(=O)CNC(=O)[C@H](CCC(N)=O)NC(=O)C(C)(C)NC(=O)[C@@H](N)Cc1c[nH]cn1)[C@@H](C)O)[C@@H](C)O)C(=O)N[C@@H](CCC(=O)O)C(=O)N[C@@H](Cc1c[nH]c2ccccc12)C(=O)N[C@@H](CC(C)C)C(=O)NC(C)(C)C(=O)N[C@@H](C)C(=O)NCC(=O)NCC(=O)N1CCC[C@H]1C(=O)N[C@@H](CO)C(=O)N[C@@H](CO)C(=O)NCC(=O)N[C@@H](C)C(=O)N1CCC[C@H]1C(=O)N1CCC[C@H]1C(=O)N1CCC[C@H]1C(=O)N[C@@H](CO)C(N)=O
For the molecule B1, the “EC50 hGIP-1 (cAMP formation, GIP receptor)” value with human GIP receptor amounted to 114 nM. The “EC50 hGLP-1R (cAMP formation)” value in the test with human GLP-1 receptor amounted to 0.008 nM. Moreover, in the test with human glucagon receptor, the “EC50 hGlucagon-R (cAMP formation)” value was determined as 3.09 nM.

B2: exendin-4 derivative SEQ ID NO: 23 (comparison compound, non-functionalized Lys in position 14) (peptide)
peptide: H[Aib]QGTFTSDLSKQKDEQRAKLFIEWL[Aib]AGGPSSGAPPPS-NH2
modifications: N-terminus assumed
SMILES: CC[C@H](C)[C@H](NC(=O)[C@H](Cc1ccccc1)NC(=O)[C@H](CC(C)C)NC(=O)[C@H](CCCCN)NC(=O)[C@H](C)NC(=O)[C@H](CCCNC(=N)N)NC(=O)[C@H](CCC(N)=O)NC(=O)[C@H](CCC(=O)O)NC(=O)[C@H](CC(=O)O)NC(=O)[C@H](CCCCN)NC(=O)[C@H](CCC(N)=O)NC(=O)[C@H](CCCCN)NC(=O)[C@H](CO)NC(=O)[C@H](CC(C)C)NC(=O)[C@H](CC(=O)O)NC(=O)[C@H](CO)NC(=O)[C@@H](NC(=O)[C@H](Cc1ccccc1)NC(=O)[C@@H](NC(=O)CNC(=O)[C@H](CCC(N)=O)NC(=O)C(C)(C)NC(=O)[C@@H](N)Cc1c[nH]cn1)[C@@H](C)O)[C@@H](C)O)C(=O)N[C@@H](CCC(=O)O)C(=O)N[C@@H](Cc1c[nH]c2ccccc12)C(=O)N[C@@H](CC(C)C)C(=O)NC(C)(C)C(=O)N[C@@H](C)C(=O)NCC(=O)NCC(=O)N1CCC[C@H]1C(=O)N[C@@H](CO)C(=O)N[C@@H](CO)C(=O)NCC(=O)N[C@@H](C)C(=O)N1CCC[C@H]1C(=O)N1CCC[C@H]1C(=O)N1CCC[C@H]1C(=O)N[C@@H](CO)C(N)=O
In the case of B2, in the test with human GIP receptor, the “EC50 hGIP-1 (cAMP formation, GIP receptor)” value came to 177 nM. Further, the “EC50 hGLP-1R (cAMP formation)” value with human GLP-1 receptor was 0.0525 nM. Besides, the “EC50 hGlucagon-R (cAMP formation)” value with human glucagon receptor was 42.9 nM.
